Data as given in the nanobody polyreactivity screen of Harvey et al. (2022).

Assay: yeast display, Sf9 membrane polyspecificity reagent, FACS + sequencing; frameworks hold sequencing errors
Summary of the method: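 Synthetic nanobody libraries on Saccharomyces cerevisiae BJ5465 were galactose-induced for 36–48 hours, stained 1 hour at 4 °C with 10% biotinylated, detergent-solubilized Sf9 membrane reagent and enriched on streptavidin microbeads. FACS then separated cells into low and high (top ~1%) gates by anti-HA (expression) and streptavidin (reagent binding) fluorescence. Genes were colony-PCR amplified, MiSeq 2 × 250 sequenced and CDR-length filtered. A clone's polyreactivity label is that of its gate of origin.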

Row | Sequence | polyreactivity (PSR sort gate)
1 | QVQLVESGGGLVQAGGSLRLSCAASGRIFYDYAMGWYRQAPGKEREFVAAIRWRGGSTYYADSVKGRFTISRDNAKNTVYLQMNSLKPEDTAVYYCATKSYYKFGYWGQGTQVTVSS | high polyreactivity
2 | QVQLVESGGGLVQAGGSLRLSCAASGRIFYFNAMGWNRQAPGKERELVADISSGGRTNYADSVKGRFTISRDNAKNTVYLQMNSLKPEDTAVYYCNADPYTSSGGYRGYDFDYWGQGTQVTVSS | low polyreactivity
3 | QVQLVESGGGLVQAGGSLRLSCAASGRIFYFNAMGWYRQAPGKERELVATITYIGGSTHYADSVKGRFTISRDNAKNTVYLQMNSLKPEDTAVYYCAVRDGKDTDTYWYGSWGQGTQVTVSS | low polyreactivity
4 | QVQLVESGGGLVQAGGSLRLSCAASGRIFYFYAMGWYRQAPGKERELVASISSGGITNYADSVKGRFTISRDNAKNTVYLQMNSLKPEDTAVYYCNAGYASGKYSGGYLYGYWGQGTQVTVSS | low polyreactivity
5 | QVQLVESGGGLVQAGGSLRLSCAASGRIFYGNAMGWYRQAPGKERELVAAITRSGGSTYYADSVKGRFTISRDNAKNTVYLQMKSLKPEDTAVYYCAKYRPGIPYYQYGSWGQGNQVTVSS | high polyreactivity
6 | QVQLVESGGGLVQAGGSLRLSCAASGRIFYGNVMGWYRQAPGKERELVAAISGGGSTNYADSVKGRFTISRDNAKNTVYLQMNSLKPEDTAVFYCAADSRPWGSSMDYWGQGTKVTVSS | low polyreactivity
7 | QVQLVESGGGLVQAGGSLRLSCAASGRIFYGYAMGWYIHAPGKERELVAAITYSGGITYYADSVKGRFTISRDNAKNTVYLQMNSLKPEDTAVYYCATSKSSVTGPDLDYWGQGTQVTVSS | high polyreactivity
8 | QVQLVESGGGLVQAGGSLRLSCAASGRIFYGYAMGWYRQAPAKERELVAAISWRGGRTYYADSVKGRFTISRDNAKNTVYLQMNSLKPEDTAVYFCNKDFPPQGQLRNMYYWGQGTLVTVSS | high polyreactivity
9 | QVQLVESGGGLVQAGGSLRLSCAASGRIFYGYAMGWYRQAPGKERELVAAIDWSGGSTYADSVKGRFTISRDNAKNTVYLQMNSLKPEDTAVYYCATDWVTSQQPYYWIYEYWGQGTQVTVSS | low polyreactivity
10 | QVQLVESGGGLVQAGGSLRLSCAASGRIFYGYAMGWYRQAPGKERELVAAIRWYVGNTYYADSVKGRFTISRDNAKNTVYLQMNSLKPEDTAVYYCNARTEYASSRYYYWGQGTQVTVSS | high polyreactivity
11 | QVQLVESGGGLVQAGGSLRLSCAASGRIFYGYAMGWYRQAPGKERELVAAITRGVSTYYADSVKGRFTISRDNAKNTVYLQMNSLKPEDTAVYYCAKDRRVRMDSWGQGTQVTVSS | low polyreactivity
12 | QVQLVESGGGLVQAGGSLRLSCAASGRIFYGYAMGWYRQAPGKERELVAGISYRGARTYYADSVKARFTISRDNAKNTVYLQMNSLKPEDTAVYNCNAVPYYPFAFGALDYSGQGTQVTVSS | high polyreactivity
13 | QVQLVESGGGLVQAGGSLRLSCAASGRIFYGYAMGWYRQAPGKERELVASISRRGSSTYYADSVKGRFTISRDNAKNTVYLQMNSLKPEDTAVYYCAAGYYPFNYWGQGTQLTVSS | high polyreactivity
14 | QVQLVESGGGLVQAGGSLRLSCAASGRIFYGYAMGWYRQAPGNERELVAAISSSGGSTYYADSVKGRFTISRDNAKYTVYLQMNSLKPDDTAVYYCNAQLYRPGYWYDYWGQGTQVTVSS | high polyreactivity
15 | QVQLVESGGGLVQAGGSLRLSCAASGRIFYGYTMGWYIQAPGKERELVAAISKHAGSTYYSDSVKGRFTISRDNAKNTVYLQMNSLKPEDTAVYYCAKDSSVQAYYGYWYTSTDDYWGQGTQVTVSS | low polyreactivity
16 | QVQLVESGGGLVQAGGSLRLSCAASGRIFYGYTMGWYRQAPGKERELVAAITQRGGNTHYADSVKGRFTISRDNAKNTVYLQMNSLKPEDTAVYYCAAKYYPYVRRVQYYYWGQGTQVTVSS | high polyreactivity
17 | QVQLVESGGGLVQAGGSLRLSCAASGRIFYHNAMGWYRQAPGKERELVAAITWSGGSTYYADSVKGRFTISRDNAKNTVYLQMNSLKTDDTAVYYCNALSNRYYSKLGSWGQGTQVTVSS | high polyreactivity
18 | QVQLVESGGGLVQAGGSLRLSCAASGRIFYHNTMGWYRQAPGKERELVAAIRSGSSSYYADSVKGRFTISRDNAKNTVYLQMNSLKPEDTAVYYCNARPWYSWGVDYDYWGQGTQVTVSS | low polyreactivity
19 | QVQLVESGGGLVQAGGSLRLSCAASGRIFYHYAMGWYRQAPGKERELVATIRRRGSSTYYADSVKGRFTISRDNAKNTVYLQMNSLKPEDTAVYYCAAGPTTNRYNYWGQGTQVTVSS | high polyreactivity
20 | QVQLVESGGGLVQAGGSLRLSCAASGRIFYINAMGWYRQAPGKERELVASITGSGGRTYYADSVKGRFTISRDNAKNTVYLQMNSLKPEDTAVYYCNADLYVGYLYYLYDYWGQGTQVTVSS | low polyreactivity
21 | QVQLVESGGGLVQAGGSLRLSCAASGRIFYINVMGWYRQAPGKERELVAGITWIGGSTYADSVKGRFTISRDNAKNTVYLQMNSLKPEVTAVYYCNADPDFTVYRYLWPEGVEYWGQGTQVTVSS | low polyreactivity
22 | QVQLVESGGGLVQAGGSLRLSCAASGRIFYIYAMGWYRQAPGKERELVATISVSGGRTYYADSVKGRFTISRDNAKNTVYLQMNSLKPEDTAVYYCAKECRFNIHKWYDYWGQGTQVTVSS | low polyreactivity

Row | Sequence | polyreactivity (PSR sort gate)
23 | QVQLVESGGGLVQAGGSLRLSCAASGRIFYIYAMGWYRQEPGKERELVAAISRRAASTYYADSVKGRFTISRDNAKNTVYLQMNSLKPEDTAVYYCAADYYDRKVEYYYWGQGTQVTVSS | high polyreactivity
24 | QVQLVESGGGLVQAGGSLRLSCAASGRIFYIYTMGWYRQAPGKEREFVAGINWNGGSTYYADSVKGRFTISRDNAKNTVYLQMNSLKPEDTAVYYCNADQYWDRYYYWGQGTQVTVSS | low polyreactivity
25 | QVQLVESGGGLVQAGGSLRLSCAASGRIFYKNAMGWYRPEPGKEREVVAAISSSGTRTYYADSVKGRFTISRENAKNTVSLQMNSLKPEDTAVYYCAAALGWYSAFGYWGQGTQVTVSS | high polyreactivity
26 | QVQLVESGGGLVQAGGSLRLSCAASGRIFYKNDLGWYRQAPGTETELVATLTYSDGTTYYADSVKGRFTISRDNAKNTVYLQMNSLKPEDTAVYYCAAQTDSVESDYWGQGTQVTVSS | low polyreactivity
27 | QVQLVESGGGLVQAGGSLRLSCAASGRIFYKYAMGWYRQAPGKERELVAGITGSGGSTYYADSVKGRFTISRDNAKNTVYLQMNSLKPEDTAVYYCAKRVSYDYWGQGTQVTVSS | low polyreactivity
28 | QVQLVESGGGLVQAGGSLRLSCAASGRIFYKYVMGGYRQAPGKARVLVAAINRSGGTTYYADSVKGRFTISRDNAKKTVYLQMNSQKPEDTAVYYCNATLPAYWPYYYYQGGDDYWGQGTQVTVSS | low polyreactivity
29 | QVQLVESGGGLVQAGGSLRLSCAASGRIFYKYVRGCYRQAPGKDRELVATITSGGSTYYADSVKGRFTISRDNAKNTVYLQMNSLNPEDTAVYYCAARKYYSRAYDYWGQGTQVTVSS | high polyreactivity
30 | QVQLVESGGGLVQAGGSLRLSCAASGRIFYLNAMGWYRQAPGKERELVATISSGGSTNYADSVKGRFTISRDNAKNTVYLQMNSLKPEDTAVYYCARKSLRYSYVYRDYWGQGTQVTVSS | low polyreactivity
31 | QVQLVESGGGLVQAGGSLRLSCAASGRIFYLYAMGWYRQAPGKERELVAAISVSGARTYYADSVKGRFTISRDNAKNTVYLHMNSLKPEDTAVYYCATVGPYRSRRAGDYWGQGTQVTVSS | high polyreactivity
32 | QVQLVESGGGLVQAGGSLRLSCAASGRIFYLYAMGWYRQAPGKERELVAAISWGGGSTYYADSVKGRFTISRDNAKNTVYLQMNSLKPEDTAVYYCAAAVTTWVEYDYWGQGTQVTVSS | low polyreactivity
33 | QVQLVESGGGLVQAGGSLRLSCAASGRIFYNNVMGWYRQAPGKERELVAAISGNGGSTYYADSVKGRFTISRDNAKNTVYLQMNSLKPEDTAVYYCAKGSHSYLISTGDYWGQGTQVTVSS | low polyreactivity
34 | QVQLVESGGGLVQAGGSLRLSCAASGRIFYNYAMGWYRQAPGKERELVAAISGSGGSTYYADSVKGRFTISRDNAKNTVYLQMNSLKPEDTAVYYCAADSYVSPEVRFDYWGQGTQVTVSS | low polyreactivity
35 | QVQLVESGGGLVQAGGSLRLSCAASGRIFYPNAMGWYRQAPGKERELVAAISWSGGSTYYADSVKGRFTISRDNAKNTVYLQMNSLKPEDTAVYFCAAKPYQVSSYDFSLRDYWGQGTQVTVSS | low polyreactivity
36 | QVQLVESGGGLVQAGGSLRLSCAASGRIFYPNAMGWYRQAPGKERELVAAISWSGGSTYYADSVKGRFTISRDNAKNTVYLQMNSLKPEDTAVYYCNAEYRYYQKTPGRYTNVEYDYWGQGTQVTVSS | low polyreactivity
37 | QVQLVESGGGLVQAGGSLRLSCAASGRIFYPYAMGWYRQAPGKERELVAAISLSGGSTLYADSVKGRFTISRDNAKNTVYLQMNSLKPEDTAVYYCAADQRTRYQTRQYYYWGQGTQVTVSS | low polyreactivity
38 | QVQLVESGGGLVQAGGSLRLSCAASGRIFYPYAMGWYRQAPGKERELVAAITSGGRTNYADSVKGRFTISRDNAKNTVYLQMNSLKPEDTAVYYCAATRFRHGKRMDYWGQGTQVTVSS | high polyreactivity
39 | QVQLVESGGGLVQAGGSLRLSCAASGRIFYPYAMGWYRQAPGKERELVAAITTSSARTYYADSVKGRFTISRDNAKNTVYLQMNSLKPEDTAVYYCAVKRGYYTTYRGYGYWGQGTQVTVSS | high polyreactivity
40 | QVQLVESGGGLVQAGGSLRLSCAASGRIFYPYAMGWYRQAPGKERELVAAITYSGGSTYYADSVKGRFTISRDNAKNTVYLQMNSLKPEDTAVYYCNAVQRGSFYLGKFGYWGQGTQVTVSS | high polyreactivity
41 | QVQLVESGGGLVQAGGSLRLSCAASGRIFYQNAMGWYRQAPGKERELVAGITRGGSTYYADSVKGRFTISRDNAKNTVYLQMNSLKPEETAVYYCAVAFWRTKWYDYWGQGTQVTVSS | low polyreactivity
42 | QVQLVESGGGLVQAGGSLRLSCAASGRIFYQYAMGWYRQAPGKERELVAAISWNGGRTYYADSVKGRFTISRDNAKNTVYLQMNSPKPEDTAVYYCNAVASKSFYYRDNYWGQGTQVTVSS | high polyreactivity
43 | QVQLVESGGGLVQAGGSLRLSCAASGRIFYRNAMGWYRQAPGKDRELVAGISKRGGSTYYADSVKGRFTISRDNAKNTVYLQMTSLKPEDTAVYYCNKVSFLNSHKSRGNRYYYWGQGTQVTVSS | high polyreactivity
